Sequences and labels used below:
T1: Abp1 SH3 (ABP1_YEAST), P15891
T1 chain: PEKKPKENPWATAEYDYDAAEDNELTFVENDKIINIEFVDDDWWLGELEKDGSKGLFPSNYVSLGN

B1: YMR089C 152-165 (peptide)
chain: RNIPPPPPPPPPKP
B2: YPL181W 404-417 (peptide)
chain: RRSADIGTDKPVKP
B3: YDL164C 386-398 (peptide)
chain: RPGIPLKPMLAKP
B4: YOR260W 63-75 (peptide)
chain: RLPKALLPIGNRP
B5: YPR122W 608-620 (peptide)
chain: RPQIYSEPTRTKP
B6: YKL185W 146-159 (peptide)
chain: RLSSVSLSKRPERP
B7: YNL233W 771-784 (peptide)
chain: RNNAYLPEFEPNRP
B8: YMR086W 669-681 (peptide)
chain: SAIPLGTPEKGKP
B9: YHR185C 60-72 (peptide)
chain: RRQHEQWPAYEKP
B10: YCR066W 152-164 (peptide)
chain: RSMTDILPLSSKP
B11: YBL007C 612-625 (peptide)
chain: RSRLQEKELPPIKP
B12: YGL041C 90-103 (peptide)
chain: RLSVKSSRRNPGKP
B13: YDR246W 151-164 (peptide)
chain: RQPTIATTDKPDRP
B14: YPR112C 621-633 (peptide)
chain: SAKEEENPVEVKP
B15: YBL034C 808-820 (peptide)
chain: RQIMIKSPNDFKP
B16: YLR006C 664-677 (peptide)
chain: RMTDSVLVKSPQKP
B17: YNL094W 468-480 (peptide)
chain: RPPPPPIPSTQKP
B18: YMR068W 271-284 (peptide)
chain: RSSITNPVFNPRKP
B19: YGL061C 212-224 (peptide)
chain: RVRKTHVPASKRP
B20: YOR098C 775-787 (peptide)
chain: SASSTPIPVLGKP
B21: YJL194W 14-27 (peptide)
chain: RNLFDDAPATPPRP
B22: YBR245C 789-801 (peptide)
chain: RSSTPSHPRMPKP
B23: YIL074C 41-53 (peptide)
chain: RVSITKQPKALKP
B24: YEL062W 541-554 (peptide)
chain: RNTAQSGNLKPERP
B25: YER081W 41-53 (peptide)
chain: RLNAVKHPKILKP
B26: YPR045C 202-214 (peptide)
chain: RLTSEPNPDLIRP
B27: YDR186C 539-551 (peptide)
chain: RSLSLMDPALQKP
B28: YDR174W 96-109 (peptide)
chain: RRKIERDPNAPKKP
B29: YGL191W 8-20 (peptide)
chain: RYASSLPPNALKP
B30: YDR176W 652-664 (peptide)
chain: RWINKIGPLFDKP
B31: YGL064C 428-441 (peptide)
chain: RSEKIMPFLSPPRP
B32: YDR104C 1028-1040 (peptide)
chain: RPLIQKGPLYQKP
B33: YGR092W 44-57 (peptide)
chain: RPAGINDSPSPVKP
B34: YCR033W 218-231 (peptide)
chain: RSNKWRSIGTPSRP
B35: YMR241W 239-252 (peptide)
chain: RVEMQSKKEDPNRP
B36: YBL080C 12-25 (peptide)
chain: RTKAIHSHGAPFRP
B37: YPR104C 727-740 (peptide)
chain: RQPIVQTPHVPDRP
B38: YHR159W 69-81 (peptide)
chain: RLNDQDHPLQAKP
B39: YDR024W 78-90 (peptide)
chain: RPTQVSRPLGGRP
B40: YOR144C 235-247 (peptide)
chain: RNTTLTWPQLFKP
B41: YKL089W 336-349 (peptide)
chain: RRKKQKKKPTPTRP
B42: YPR140W 364-376 (peptide)
chain: RRMQKFLPPEGKP
B43: YHL024W 604-617 (peptide)
chain: RRSSYGYNEVPPKP
B44: YNL278W 803-816 (peptide)
chain: RSRHEVPKRSPEKP
B45: YGR097W 8-20 (peptide)
chain: RPSQTLTPMGNKP
B46: YMR172W 515-527 (peptide)
chain: RNRASTLPSYPKP
B47: YOL090W 17-30 (peptide)
chain: RNFYKKYTGLPKKP
B48: YDL025C 107-120 (peptide)
chain: SAKKAPIDYSPSRP
B49: YFR032C 54-67 (peptide)
chain: RRFSKRHNSNPRKP
B50: YDL106C 66-79 (peptide)
chain: SASSNASDSGPQRP
B51: YGR074W 130-142 (peptide)
chain: RRRDFGAPANKRP
B52: YPL066W 175-187 (peptide)
chain: RYTYLPSPSYFRP
B53: YNL034W 543-555 (peptide)
chain: SAPQLTVPEPSKP
B54: YLR430W 1001-1014 (peptide)
chain: SANAKLHRTKPVKP

For this test, the target named is T1, Abp1 SH3 (ABP1_YEAST), P15891. Put plainly: SPOT array.
As to B1, the normalised SPOT signal, Boehringer light units (BLU); mean over the file's lines of this peptide came out at 1000.

Regarding B2, the normalised SPOT signal, Boehringer light units (BLU); mean over the file's lines of this peptide turned out to be 121.

Molecule B3 came in with a normalised SPOT signal, Boehringer light units (BLU); mean over the file's lines of this peptide of 42200.

As to B4, the normalised SPOT signal, Boehringer light units (BLU); mean over the file's lines of this peptide is 702.

For B5, the normalised SPOT signal, Boehringer light units (BLU); mean over the file's lines of this peptide was found to be 373.

B6 yielded a normalised SPOT signal, Boehringer light units (BLU); mean over the file's lines of this peptide of 412.

B7 displayed a normalised SPOT signal, Boehringer light units (BLU); mean over the file's lines of this peptide of 44.7.

B8 came in with a normalised SPOT signal, Boehringer light units (BLU); mean over the file's lines of this peptide of 105.

With B9, the normalised SPOT signal, Boehringer light units (BLU); mean over the file's lines of this peptide turned out to be 300.

For B10, the normalised SPOT signal, Boehringer light units (BLU); mean over the file's lines of this peptide was found to be 5410.

Molecule B11 gave a normalised SPOT signal, Boehringer light units (BLU); mean over the file's lines of this peptide of 88.5.

B12 yielded a normalised SPOT signal, Boehringer light units (BLU); mean over the file's lines of this peptide of 125.

On to B13, for which the normalised SPOT signal, Boehringer light units (BLU); mean over the file's lines of this peptide is 83.4.

Consider B14, for which the normalised SPOT signal, Boehringer light units (BLU); mean over the file's lines of this peptide came out at 63.3.

The molecule B15 registered a normalised SPOT signal, Boehringer light units (BLU); mean over the file's lines of this peptide of 2000.

B16 displayed a normalised SPOT signal, Boehringer light units (BLU); mean over the file's lines of this peptide of 2960.

With B17, the normalised SPOT signal, Boehringer light units (BLU); mean over the file's lines of this peptide is 2820.

The molecule B18 showed a normalised SPOT signal, Boehringer light units (BLU); mean over the file's lines of this peptide of 527.

Regarding B19, the normalised SPOT signal, Boehringer light units (BLU); mean over the file's lines of this peptide came out at 78.6.

In turn, B20 displayed a normalised SPOT signal, Boehringer light units (BLU); mean over the file's lines of this peptide of 100.

B21 showed a normalised SPOT signal, Boehringer light units (BLU); mean over the file's lines of this peptide of 126.

B22 had a normalised SPOT signal, Boehringer light units (BLU); mean over the file's lines of this peptide of 1930.

On to B23, for which the normalised SPOT signal, Boehringer light units (BLU); mean over the file's lines of this peptide was 244.

B24 had a normalised SPOT signal, Boehringer light units (BLU); mean over the file's lines of this peptide of 115.

B25 had a normalised SPOT signal, Boehringer light units (BLU); mean over the file's lines of this peptide of 188.

The molecule B26 yielded a normalised SPOT signal, Boehringer light units (BLU); mean over the file's lines of this peptide of 94.5.

B27 gave a normalised SPOT signal, Boehringer light units (BLU); mean over the file's lines of this peptide of 431.

With B28, the normalised SPOT signal, Boehringer light units (BLU); mean over the file's lines of this peptide stood at 66.1.

As for B29, the normalised SPOT signal, Boehringer light units (BLU); mean over the file's lines of this peptide worked out at 219.

For the molecule B30, the normalised SPOT signal, Boehringer light units (BLU); mean over the file's lines of this peptide was found to be 287.

On to B31, for which the normalised SPOT signal, Boehringer light units (BLU); mean over the file's lines of this peptide is 701.

B32 came in with a normalised SPOT signal, Boehringer light units (BLU); mean over the file's lines of this peptide of 359.

Regarding B33, the normalised SPOT signal, Boehringer light units (BLU); mean over the file's lines of this peptide was 71.

For the molecule B34, the normalised SPOT signal, Boehringer light units (BLU); mean over the file's lines of this peptide turned out to be 148.

Consider B35, for which the normalised SPOT signal, Boehringer light units (BLU); mean over the file's lines of this peptide turned out to be 1200.

Regarding B36, the normalised SPOT signal, Boehringer light units (BLU); mean over the file's lines of this peptide is 49.4.

B37: the normalised SPOT signal, Boehringer light units (BLU); mean over the file's lines of this peptide came out at 56.7.

With B38, the normalised SPOT signal, Boehringer light units (BLU); mean over the file's lines of this peptide came out at 104.

On to B39, for which the normalised SPOT signal, Boehringer light units (BLU); mean over the file's lines of this peptide stood at 3290.

B40: the normalised SPOT signal, Boehringer light units (BLU); mean over the file's lines of this peptide turned out to be 344.

In the case of B41, the normalised SPOT signal, Boehringer light units (BLU); mean over the file's lines of this peptide came out at 33.3.

For the molecule B42, the normalised SPOT signal, Boehringer light units (BLU); mean over the file's lines of this peptide turned out to be 615.

With B43, the normalised SPOT signal, Boehringer light units (BLU); mean over the file's lines of this peptide is 188.

B44 yielded a normalised SPOT signal, Boehringer light units (BLU); mean over the file's lines of this peptide of 76.3.

With B45, the normalised SPOT signal, Boehringer light units (BLU); mean over the file's lines of this peptide is 4080.

On to B46, for which the normalised SPOT signal, Boehringer light units (BLU); mean over the file's lines of this peptide was found to be 224.

As to B47, the normalised SPOT signal, Boehringer light units (BLU); mean over the file's lines of this peptide is 112.

As for B48, the normalised SPOT signal, Boehringer light units (BLU); mean over the file's lines of this peptide stood at 0.

Take B49: the normalised SPOT signal, Boehringer light units (BLU); mean over the file's lines of this peptide amounted to 89.

Molecule B50 had a normalised SPOT signal, Boehringer light units (BLU); mean over the file's lines of this peptide of 172.

Turning to B51, the normalised SPOT signal, Boehringer light units (BLU); mean over the file's lines of this peptide is 71.9.

Take B52: the normalised SPOT signal, Boehringer light units (BLU); mean over the file's lines of this peptide was found to be 276.

With B53, the normalised SPOT signal, Boehringer light units (BLU); mean over the file's lines of this peptide is 52.2.

Molecule B54 gave a normalised SPOT signal, Boehringer light units (BLU); mean over the file's lines of this peptide of 138.

The record behind these values is PMC314469, “Protein Interaction Networks by Proteome Peptide Scanning” (PLoS Biology, 2004).
